Source: US20200113969A1

Key:
[1] = target: MMP-9 (commercial enzyme, Sigma) (UniProt P14780); assay: cell-based or functional assay
[2] = target: MMP-9 present in HT29 extracellular media (human) (UniProt P14780); assay: cell-based or functional assay
Sequence of MMP-9 present in HT29 extracellular media (human) (P14780 20-707): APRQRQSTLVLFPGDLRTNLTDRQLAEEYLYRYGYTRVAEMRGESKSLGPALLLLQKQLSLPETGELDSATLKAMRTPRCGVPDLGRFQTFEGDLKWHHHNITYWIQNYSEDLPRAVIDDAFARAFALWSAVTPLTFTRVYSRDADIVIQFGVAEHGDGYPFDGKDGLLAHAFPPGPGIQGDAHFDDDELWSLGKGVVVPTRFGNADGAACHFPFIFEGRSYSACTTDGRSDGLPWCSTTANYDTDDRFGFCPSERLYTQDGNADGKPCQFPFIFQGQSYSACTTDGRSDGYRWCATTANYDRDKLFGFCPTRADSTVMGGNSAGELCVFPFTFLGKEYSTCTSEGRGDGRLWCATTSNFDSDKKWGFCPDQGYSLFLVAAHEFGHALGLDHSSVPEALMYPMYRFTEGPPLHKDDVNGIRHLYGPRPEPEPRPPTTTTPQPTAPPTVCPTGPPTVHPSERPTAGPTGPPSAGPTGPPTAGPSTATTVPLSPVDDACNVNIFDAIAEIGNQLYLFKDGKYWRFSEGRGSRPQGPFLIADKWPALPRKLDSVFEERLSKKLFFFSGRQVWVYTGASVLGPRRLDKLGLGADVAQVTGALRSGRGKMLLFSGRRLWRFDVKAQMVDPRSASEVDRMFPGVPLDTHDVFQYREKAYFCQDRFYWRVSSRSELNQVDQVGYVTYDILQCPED

Sequence of MMP-9 (commercial enzyme, Sigma) (P14780 107-707 limits assumed): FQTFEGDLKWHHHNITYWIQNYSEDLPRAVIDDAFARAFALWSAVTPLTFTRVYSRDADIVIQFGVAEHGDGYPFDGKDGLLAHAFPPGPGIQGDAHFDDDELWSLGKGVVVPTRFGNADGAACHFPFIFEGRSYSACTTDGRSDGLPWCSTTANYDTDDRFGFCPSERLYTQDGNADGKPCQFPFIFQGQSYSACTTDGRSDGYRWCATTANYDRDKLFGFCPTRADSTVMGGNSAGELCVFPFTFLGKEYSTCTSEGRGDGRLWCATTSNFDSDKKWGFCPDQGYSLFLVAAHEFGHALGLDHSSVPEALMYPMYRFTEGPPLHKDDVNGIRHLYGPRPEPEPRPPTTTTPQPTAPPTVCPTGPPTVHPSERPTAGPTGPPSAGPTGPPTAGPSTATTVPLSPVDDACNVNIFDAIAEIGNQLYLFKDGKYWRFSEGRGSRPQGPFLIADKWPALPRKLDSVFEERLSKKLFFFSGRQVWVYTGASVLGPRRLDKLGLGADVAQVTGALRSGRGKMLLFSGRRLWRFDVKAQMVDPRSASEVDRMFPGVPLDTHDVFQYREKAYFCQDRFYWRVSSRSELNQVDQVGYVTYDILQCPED

Substance	MMP-9 inhibitory activity, DQ gelatin assay [1] [%]	EC50, MMP inhibition (gelatinolytic activity of HT29 media, DQ-gelatin) [2] [µg/mL]	MIC, MMP inhibition (gelatinolytic activity of HT29 media, DQ-gelatin) [2] [µg/mL]	gelatinolytic activity of MMP-9 on DQ-gelatin, deflamin at 100 µg/mL [1] [%]
fraction 4 of the size exclusion chromatography (Superdex 75) of the L. albus total protein extract	100	–	–	–
deflamin isolated from Lupinus albus seeds (from UniProt Q53HY0 31-531; F5B8W8 73-152)	–	10	< 5	> 90
